According to article PMC5537072, “Anthranilate phosphoribosyltransferase from the hyperthermophilic archaeon Thermococcus kodakarensis shows maximum activity with zinc and forms a unique dimeric structure” (FEBS Open Bio, 2017):

B1: TkTrpD (Thermococcus kodakarensis KOD1) (protein)
chain: MSLLAKIVDGKNLSFEEAYELFNELKGSDGVLIGAYLAALQTKGYTGEELAGLARAMRDSAVKLDLGKVADTAGTGGDGSSTINVSTASALILSAFTRVAKHGNVSITSKSGSANVLEALGLNIRVSPERAREMVESTNFTFIFAPAYHPALRPIMPVRKALGIKTVFNVIGPLANPADPAYQVVGVNSPELLEPVAEALEFLGVERALVVHGSGMDEVSPHRETLVLEVGNGVERYTLSPEDFGIEPVKPLPCSSPEESAARIKAVLGGSGRREDRDFILVNASAALYASGVAEDFREGLEMAREALGQGMLEKLEEIACLSKS
notes: homodimer

Tests used:
Nc1ccccc1C(=O)O = test: purified protein; assay type: biochemical, Thermococcus kodakarensis; conditions: 1 mM PRPP, 100 μM ZnCl2, 100 mM Tris/HCl pH 8.5, 55 °C
purified protein = substrate: O=P(O)(O)OC[C@H]1O[C@H](OP(=O)(O)OP(=O)(O)O)[C@H](O)[C@@H]1O; test: purified protein; assay type: biochemical, Thermococcus kodakarensis; conditions: 4 μM anthranilate, 100 μM ZnCl2, 100 mM Tris/HCl pH 8.5, 55 °C

Molecule	Km (Nc1ccccc1C(=O)O)	Km (purified protein)
TkTrpD (Thermococcus kodakarensis KOD1)	2.2 µM	–
B1	–	250 µM
